First the molecules themselves.
B1: Azoarcus group I ribozyme (parent)
chain: GUGCCUUGCGCCGGGAAACCACGCAAGGGAUGGUGUCAAAUUCGGCGAAACCUAAGCGCCCGCCCGGGCGUAUGGCAACGCCGAGCCAAGCUUCGGCGCCUGCGCCGAUGAAGGUGUAGAGACUAGACGGCACCCACCUAAGGCAAACGCUAUGGUGAAGGCAUAGUCCAGGGAGUGGCGAAAGUCACACAAACCGG

The values below come from the RNAGym collection of RNA variant scans (doi:10.1093/molbev/msab373).

In this data set the parent is B1. Briefly: reverse-splicing fitness (ratio to wild type); higher = more active; in vitro selection; Mg2+ level not given. The method in brief: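 An in vitro group I ribozyme library with randomized positions was T7-transcribed and gel-purified. In triplicate, 10 pmol RNA in EPPS pH 7.5 was reacted with 50 pmoles of a 30-nt RNA substrate for 1 h at 37 °C across several added MgCl2 levels (1–48 mM), then stopped with EDTA. Products were reverse transcribed from a substrate-complementary primer, PCR-amplified and sequenced (HiSeq 4000). Fitness is a variant's read proportion after selection over that before, normalised to wild type.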
On to A111U A120C A145C C169G U176C, for which the reverse-splicing fitness came to 0.0106. Then A111U C150U C169A U176C, with 0.0138. Then C82U A111G A120G A145U C150A U176A, with 0.00974; and C82U A111G A120U C150U C169G, with 0.00459; and A111G A120U A145U C150G U176C, with 0.0298. Then C82U A111C A120U C150G C169G U176A, with 0.00425; and C82A A111U A145G C150A C169G U176C, with 0.027.

Take A120U A145U C150U C169A U176C: the reverse-splicing fitness amounted to 0.00496. On to C82U A111G A120U A145C C150G C169U, for which the reverse-splicing fitness came to 0.00264.

Consider C82U A120C C150A C169G U176A, for which the reverse-splicing fitness stood at 0.0156. Then C82G C150U C169A U176C, with 0.0132.

Turning to C82G A111C A145C C150U C169U U176G, the reverse-splicing fitness came to 0.00739. Then C82A A111U A120C A145G C150G C169G U176C, with 0.0155. As to A111G A120U A145U C150U C169G U176G, the reverse-splicing fitness is 0.00232. Then C82G A111C A145C C150U C169A U176C, with 0.0132. Then A111U A120G A145G C169G, with 0.222. Then C82G A111U A120C A145C C169U U176G, with 0.00455; and C82A A111U A120G A145G C150U C169A U176G, with 0.00668. As to A120G A145U C150A U176A, the reverse-splicing fitness turned out to be 0.0378. Then A111G A120C A145C C150A C169A U176A, with 0.00728. Then A111U A120U C169U U176G, with 0.00332; and C82G A111C A145U C150U, with 0.172. Then A111C A120G C150A U176C, with 0.0209. With C82U A111C A120C C150A C169U, the reverse-splicing fitness is 0.0128. Then A111C A120U C150U U176A, with 0.145; and C82U A111U A145G C150U C169G U176C, with 0.0174; and C82A A111C A145C C169G U176C, with 0.0216. Then C82G A111G C150G U176C, with 0.0225; and C82A A111C A120G A145C C150A C169G U176C, with 0.0145. Then A111C A120C A145G C150U U176A, with 0.159. Consider C82U A111U A120U U176C, for which the reverse-splicing fitness stood at 0.0117.

Regarding C82U A111G A120G C150G C169G U176C, the reverse-splicing fitness turned out to be 0.00458. Then C82A A111C A120G C169A U176A, with 0.0155; and C82A A111C A145U C150U C169U U176A, with 0.0172; and C82A A120U A145U C150G C169U U176A, with 0.0025.

On to C82G A111G A120C A145C C150A C169U U176G, for which the reverse-splicing fitness was determined as 0.00668. Then C82U A111C A120U A145G C150A C169A, with 0.00616.

Consider C82U A120U A145U C150A C169A U176A, for which the reverse-splicing fitness worked out at 0.00221.

On to C82A A120C C150A C169A U176C, for which the reverse-splicing fitness worked out at 0.0227. Then A145C C169U U176A, with 0.106; and C82U A111C A145U C150G C169U U176G, with 0.00671. Turning to C82A A111U A145G C150A C169U, the reverse-splicing fitness was 0.0111. Then C82U A111G A120G A145U C150U C169G, with 0.0107; and C82G A120G A145G C169U, with 0.0249. Then C82U A111G A145U C150A C169A U176A, with 0.0129. Then C82A C169A U176A, with 0.015. Regarding C82U A111U A120U A145C C150U C169U U176A, the reverse-splicing fitness is 0.00211. Consider A120C A145C C150A, for which the reverse-splicing fitness worked out at 0.128. Then A120U A145G C150U, with 0.841; and C82G A111G A120U A145G C169A U176A, with 0.00574. Then C82G A111G A120U C150A, with 0.00949. Then C82A A111G A145G C150G C169G U176C, with 0.011; and C82A A111U A120U A145C U176A, with 0.00613; and C82G A111C A120G A145U C150A C169A U176C, with 0.0105.

On to C82A A111C A145G C150A C169A U176A, for which the reverse-splicing fitness amounted to 0.0172. Then A111C A120C C150A C169A U176A, with 0.0162. Then C82U A120C A145C C169G, with 0.00713; and C82A A111C A120U A145U U176A, with 0.00697; and C82A A111G A145G C150A C169U U176G, with 0.00672. Then C82G A111U C150U C169A, with 0.0106.

With C82U A111C A120U A145G, the reverse-splicing fitness stood at 0.0248. Then C82U A111C A120U A145C C150A C169U U176A, with 0.00323. Then C82A A111U A120G A145U C150A C169U U176A, with 0.0193. Then C82U A111C A120C A145U C150A U176A, with 0.00905; and A111U A145G C150U, with 0.915. Regarding C82U A111U A120C A145C C169A U176A, the reverse-splicing fitness was 0.00868. On to A111G A145C C150U, for which the reverse-splicing fitness worked out at 0.688. C82G A111U A120G A145G U176G: the reverse-splicing fitness is 0.0077. Then C82U A111G A145G C150U C169U, with 0.0111; and A111G A120C A145C C150U U176G, with 0.05.

As for C82G C150G U176A, the reverse-splicing fitness came to 0.0255. Then C82U A111C A120C A145C U176G, with 0.00562; and C82G A111G A145C C150A, with 0.0192.

For C82U A111C A145G C150A U176G, the reverse-splicing fitness turned out to be 0.00984.

Take A111G A120G A145C C150G C169U: the reverse-splicing fitness came out at 0.0356. Then C82U A111C A120C A145U C169U U176G, with 0.0054. Then C82U A111G A120C A145C C150G C169U, with 0.00749; and C82A A145C C150U C169A, with 0.00801; and C82U A111C A120U A145U C169G U176C, with 0.00286. Then A120U A145U U176C, with 0.642. As to C82G A111U A120C A145U C150A U176C, the reverse-splicing fitness came out at 0.018. Then C82A A111U A145U C169G U176G, with 0.00625; and C82A A111G A120U C150G C169U U176A, with 0.00322. Then A111U C150U C169G U176C, with 0.0215.
